Source: patent publication US20230087785A1, “Leucine-Rich Repeat Kinase 2 Allosteric Modulators” (VIB VZW, priority 2020, published 2023)

What was measured:
[1] = biological target: T1, Roc domain (Homo sapiens, UniProt Q5S007); experiment: Analytical size exclusion chromatography; assay type: binding; conditions: data not shown
T1 construct: A construct of the Roc domain spanning the residues 1329-1520 was cloned in the pET-28a vector providing an N-terminal His6-tag; His6 (N); made in house; host or cells: E. coli BL21(DE3)
T1 sequence (Q5S007 1329-1520): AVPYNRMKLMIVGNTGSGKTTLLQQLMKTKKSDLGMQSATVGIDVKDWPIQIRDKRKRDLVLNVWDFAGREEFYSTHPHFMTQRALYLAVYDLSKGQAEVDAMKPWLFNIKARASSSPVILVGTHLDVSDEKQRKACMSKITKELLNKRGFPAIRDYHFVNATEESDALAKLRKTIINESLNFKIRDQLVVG

[2] = biological target: T2, full-length LRRK2 (Homo sapiens, UniProt Q5S007, M2397T/R50H); experiment: Microscale thermophoresis (MST) affinity measurement; assay type: binding; conditions: m-TAMRA-labeled Nb titrated with LRRK2; 500 μM GDP
T2 construct: Full-length human LRRK2 was expressed and purified based on previously developed protocols; SF tag (FLAG-tag + Twin-Strep-tag); made in house; host or cells: HEK 293T
Excerpt: Binding isotherms are shown, obtained by titrating increasing concentrations of LRRK2 to fluorescently (m-TAMRA)-labeled Nbs and measuring the MST signals. Nbs are classified into four functional groups as defined in FIG. 2d with (FIG. 13A) group 1 Nbs, (FIG. 13B) group 2 Nbs, (FIG. 13C) group 3 Nbs, and (FIG. 13D) group 4 Nbs. In panel (FIG. 13E) two negative controls are shown, where LRRK2 was either titrated to free m-TAMRA or to a m-TAMRA-labeled irrelevant Nb. All measurements were performed in presence of 500 μM GDP, except for Nb42 where GTPγS was used. The corresponding equilibrium dissociation constants (Kd±standard error) obtained by fitting with a quadratic binding equation are given (each data point is the average of three independent measurements with the error bars representing the standard deviation; NB=no MST binding signal detectable).
To determine the binding affinity (dissociation constant KD) of the ten Nbs for LRRK2, two methods were used in parallel: microscale thermophoresis (MST) and bio-layer interferometry (BLI). […] For the BLI experiment LRRK2 was first trapped on a streptavidin-coated biosensor using biotinylated Nb40 as trapping agent (except to assess binding of Nb40, where Nb42 was used as trapping agent), after which binding of all Nbs to LRRK2 was determined. […]

T2 sequence (Q5S007 whole entry R50H/M2397T): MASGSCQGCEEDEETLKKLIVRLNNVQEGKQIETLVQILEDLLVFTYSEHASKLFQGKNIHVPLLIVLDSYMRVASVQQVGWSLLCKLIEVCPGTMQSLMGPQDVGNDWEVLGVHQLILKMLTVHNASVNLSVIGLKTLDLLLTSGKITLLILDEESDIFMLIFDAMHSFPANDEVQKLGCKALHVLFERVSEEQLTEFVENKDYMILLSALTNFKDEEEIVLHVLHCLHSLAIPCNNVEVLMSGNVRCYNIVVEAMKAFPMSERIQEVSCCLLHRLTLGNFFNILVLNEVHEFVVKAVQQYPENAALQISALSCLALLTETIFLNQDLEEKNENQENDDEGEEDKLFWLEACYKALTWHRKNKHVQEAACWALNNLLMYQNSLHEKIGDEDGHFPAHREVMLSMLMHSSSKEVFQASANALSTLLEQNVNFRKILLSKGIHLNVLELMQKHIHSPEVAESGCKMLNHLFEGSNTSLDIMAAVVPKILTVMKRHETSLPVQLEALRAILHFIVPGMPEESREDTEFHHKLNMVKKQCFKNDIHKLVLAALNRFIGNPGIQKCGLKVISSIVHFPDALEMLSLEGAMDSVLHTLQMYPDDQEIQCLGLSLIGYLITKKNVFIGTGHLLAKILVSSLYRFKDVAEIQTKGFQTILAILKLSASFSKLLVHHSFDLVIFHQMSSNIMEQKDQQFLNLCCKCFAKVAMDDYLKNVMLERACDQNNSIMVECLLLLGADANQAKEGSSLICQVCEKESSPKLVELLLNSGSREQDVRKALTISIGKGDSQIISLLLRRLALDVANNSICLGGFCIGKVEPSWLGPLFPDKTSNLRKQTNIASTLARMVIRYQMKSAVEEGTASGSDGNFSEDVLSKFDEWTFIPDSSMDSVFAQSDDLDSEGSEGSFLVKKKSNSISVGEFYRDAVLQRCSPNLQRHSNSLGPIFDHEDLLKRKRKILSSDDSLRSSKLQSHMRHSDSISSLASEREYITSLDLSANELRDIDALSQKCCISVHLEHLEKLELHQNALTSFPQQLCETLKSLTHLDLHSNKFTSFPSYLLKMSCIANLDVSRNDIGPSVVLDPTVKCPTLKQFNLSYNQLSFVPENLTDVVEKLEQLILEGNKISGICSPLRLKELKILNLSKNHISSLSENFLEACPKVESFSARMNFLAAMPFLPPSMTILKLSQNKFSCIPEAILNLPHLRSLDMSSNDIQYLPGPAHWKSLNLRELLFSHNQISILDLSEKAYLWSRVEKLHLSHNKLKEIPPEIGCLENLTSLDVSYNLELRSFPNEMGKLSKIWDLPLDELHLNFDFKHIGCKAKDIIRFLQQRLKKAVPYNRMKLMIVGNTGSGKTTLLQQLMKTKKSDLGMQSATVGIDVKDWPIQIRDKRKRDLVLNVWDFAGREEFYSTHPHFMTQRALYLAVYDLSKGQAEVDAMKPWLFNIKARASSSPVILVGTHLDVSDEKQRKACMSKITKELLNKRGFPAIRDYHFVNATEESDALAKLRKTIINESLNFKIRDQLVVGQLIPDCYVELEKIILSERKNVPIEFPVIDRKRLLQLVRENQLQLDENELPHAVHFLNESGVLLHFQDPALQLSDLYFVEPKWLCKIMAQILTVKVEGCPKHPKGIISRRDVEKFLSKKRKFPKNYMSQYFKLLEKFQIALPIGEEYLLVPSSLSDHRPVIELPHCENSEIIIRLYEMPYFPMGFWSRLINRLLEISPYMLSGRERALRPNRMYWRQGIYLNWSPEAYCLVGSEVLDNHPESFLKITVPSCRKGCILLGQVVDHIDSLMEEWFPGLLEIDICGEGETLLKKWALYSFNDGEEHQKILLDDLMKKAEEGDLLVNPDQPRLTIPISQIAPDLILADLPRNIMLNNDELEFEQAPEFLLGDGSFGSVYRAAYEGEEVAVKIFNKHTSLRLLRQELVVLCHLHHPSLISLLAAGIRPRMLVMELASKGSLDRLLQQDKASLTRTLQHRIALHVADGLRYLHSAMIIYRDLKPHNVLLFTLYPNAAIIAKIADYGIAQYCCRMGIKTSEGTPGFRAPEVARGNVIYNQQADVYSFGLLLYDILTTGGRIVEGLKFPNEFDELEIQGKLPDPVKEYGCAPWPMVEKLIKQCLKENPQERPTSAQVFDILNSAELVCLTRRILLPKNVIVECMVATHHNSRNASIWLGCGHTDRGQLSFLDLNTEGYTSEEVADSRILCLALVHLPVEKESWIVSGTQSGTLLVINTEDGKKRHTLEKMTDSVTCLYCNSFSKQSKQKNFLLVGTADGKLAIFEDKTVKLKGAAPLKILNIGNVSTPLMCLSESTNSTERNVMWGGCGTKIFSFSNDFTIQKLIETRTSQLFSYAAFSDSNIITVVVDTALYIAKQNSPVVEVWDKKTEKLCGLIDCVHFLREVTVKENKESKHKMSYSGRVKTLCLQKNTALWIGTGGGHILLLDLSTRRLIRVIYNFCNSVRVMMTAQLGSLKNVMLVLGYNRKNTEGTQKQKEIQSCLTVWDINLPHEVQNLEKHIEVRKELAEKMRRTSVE

B1: Nb42: LRRK2-specific Nanobody, SEQ ID NO: 6 (protein)
VHH: MAQVQLVESGGGLVQAGGSLRLSCAASGDVNYAVGWFRQAPRKEREFVAAINWRGDNTDYTDSVKGRFTISRDNAKNTVYLQMNSLKPEDTAVYYCAAKSAPYWYSDIAPDYWGQGTQVTVSS
modifications: Nanobody CA14259
binding to Roc [1]: binding to Roc was confirmed

B2: Nb23: LRRK2-specific Nanobody, SEQ ID NO: 3 (protein)
VHH: MAQVQLVESGGGLVQAGGSLRLSCAASGRTFSRYTMGWFRQAPGKDREFVARITTSGAVTTYADSAKGRFTISRDNAKNTVYLQMNTLKPEDTAVYYCAAGQGQLSSQSRFVDYWGQGTQVTVSS
modifications: Nanobody CA13612
KD (nM)-MST [2]: did not generate a change in thermophoresis behavior
